Where two headings read alike, the source gives them in different places. Blank lines part the entries; values can stand above or below the binder they belong to.
Columns and labels:
[1] = target: T1, human IL-6 (human, UniProt P05231 30-212); assay: SPR (SensiQ Pioneer), mAb captured on protein G, IL-6 as analyte (3×FLAG-IL-6 or IL-6 CYT-213, 1-100 nM), 25 C, 1:1 model
T1 construct: Soluble IL-6 of the mAb SPR (analyte was 3×FLAG-IL-6 or IL-6 CYT-213); also called recombinant human IL-6 (Prospec-Tany CYT-213, CYT-274)
Experimental: Equilibrium constants for rabbit human chimeric mAbs were determined by binding the mAb to the protein G coated chip followed by binding of each analyte (IL-6 or IL-23) to its respective mAb. In order to minimize mass transfer effects, the surface densities of the mAbs for each analyte were adjusted so that as analyte binding approached saturation its corresponding RU fell between 200 and 300. […] For each binding and dissociation cycle the chip surface was regenerated with 15 uL of 20 mM NaOH (5671-02, Mallinckrodt Baker, Philliphsburg, N.J.). The assay temperature was maintained at 25° C. with an analyte flow rate of 50 μL/min and included a 2 minute association phase and 10-30 minute dissociation phase. The on/off rates (kₐ/kd) and dissociation constants (KD) were determined using the format described above along with pseudo-first-order 1:1 interaction model software (Qdat, ICx Nomadics, Stillwater, Okla.).

[2] = target: T1, human IL-6; assay: cell-based or functional assay
[3] = target: T2, 3×FLAG-IL-6 (human); assay: SPR, 3×FLAG-IL-6 captured by anti-FLAG M2 on protein G, scFv as analyte (1-100 nM)
T2 construct: it may hold the pre-pro-trypsin leader
T2 sequence (chain, as listed by the source limits assumed): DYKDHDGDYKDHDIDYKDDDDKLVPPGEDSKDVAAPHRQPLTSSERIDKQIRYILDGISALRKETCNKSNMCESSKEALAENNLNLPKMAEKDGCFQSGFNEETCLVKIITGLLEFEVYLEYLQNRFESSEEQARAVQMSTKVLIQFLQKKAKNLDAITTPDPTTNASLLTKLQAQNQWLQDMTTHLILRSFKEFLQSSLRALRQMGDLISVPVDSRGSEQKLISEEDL
Experimental: Equilibrium constants for scFvs were determined as previously described; however, the protocol was modified so that an epitope tagged IL-6 was captured on the chip surface and the dissociation of anti-IL-6 scFvs from IL-6 was monitored. Briefly, anti-FLAG® M2 antibody (200472, Agilent Technologies, Santa Clara, Calif.) was bound to Protein G, and then 3×FLAG-IL-6 was captured by the anti-FLAG antibody. The anti-IL-6 scFvs were assayed over a range of concentrations between 1 and 100 nM.
Anti IL-6 scFvs, humanized using the one step method, retained IL-6 neutralization activity when expressed in mammalian cells, as shown for 13A8 (FIG. 11A and FIG. 11B), 28D2 and 9C8 v3-1 (FIG. 11C).

[4] = target: T3, human dimeric IL-23 (eBiosciences 34-8239) (human, UniProt P29460 23-328; Q9NPF7 20-189); assay: cell-based or functional assay
T3 sequence (looked up) 1: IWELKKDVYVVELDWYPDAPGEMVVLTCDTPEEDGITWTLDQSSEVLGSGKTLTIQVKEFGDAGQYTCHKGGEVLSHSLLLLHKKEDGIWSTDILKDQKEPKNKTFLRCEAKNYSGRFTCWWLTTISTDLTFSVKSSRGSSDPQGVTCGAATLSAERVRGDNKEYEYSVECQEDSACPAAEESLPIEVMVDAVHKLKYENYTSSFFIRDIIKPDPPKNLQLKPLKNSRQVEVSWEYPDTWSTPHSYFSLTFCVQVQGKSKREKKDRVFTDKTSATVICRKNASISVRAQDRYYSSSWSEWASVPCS
T3 sequence (looked up) 2: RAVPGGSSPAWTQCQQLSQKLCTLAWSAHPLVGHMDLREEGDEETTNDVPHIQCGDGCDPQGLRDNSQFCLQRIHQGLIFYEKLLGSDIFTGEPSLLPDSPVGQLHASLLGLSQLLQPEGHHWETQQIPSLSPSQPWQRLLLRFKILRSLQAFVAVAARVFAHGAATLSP

[5] = target: T1, human IL-6; assay: cell-based or functional assay; remark: listed apart in the source
[6] = target: T2, 3×FLAG-IL-6; assay: SPR, 3×FLAG-IL-6 captured by anti-FLAG M2 on protein G, scFv as analyte (1-100 nM); remark: listed apart in the source

- Kd [1]: 0.042 nM
- koff [1]: 3.17e-05 s⁻¹
- kon [1]: 765000 M⁻¹ s⁻¹
- EC50, inhibition of IL-6 induced B9 cell proliferation [2]: 400 pg/mL
B1: 9C8 chimeric mAb (antibody, V domains shown)
VH: QSVEESGGRLVTPGTPLTLTCTVSGIDLSSYDMSWVRQAPGKGLEWIGYIYTDSSTYYANWAKGRFTISKTSTTVDLKMTSLTTEDTATYFCAKGSTDYAFDTRLDLWGPGTLVTVS
VL: AYDMTQTPASVEVAMGGTVTIKCQASQSISNELSWYQQKPGQPPKLLIYRTSTLASGVSSRFKGSGSGTEYTLTISGVECADAATYYCQQGYNSNDVDNVFGGGTKVVVVR
notes: Rabbit/human chimeric IgG (human IgG1, kappa); HEK293; also called 9C8 clone

- EC50, inhibition of IL-6 induced B9 cell proliferation [2]: 65 pg/mL
B2: 28D2 chimeric mAb (antibody, V domains shown)
VH: QSLGESGGRLVTPGTPLTLTCTVSGLSLSKNAIAWVRQAPGKGLEWIGIIYAGGATTYASWAKGRFTISKSSTTVDLKITSPTTVDTATYFCAREYAGDSYYTGYTQLDLWGPGTLVTVSS
VL: ALVMTQTPASVSAAVGGTVTINCQASEDLFSSLAWFQQKPGQPPKLLIYSASTLASGVPSRFSGSGSGTEFTLTISDLECADAATYYCLGLYYYLTPDPIYGFGGGTKVVVV

- EC50, inhibition of IL-6 induced B9 cell proliferation [2]: 319 pg/mL
- Kd [3]: 0.089 nM
- koff [3]: 4.03e-05 s⁻¹
- kon [3]: 447000 M⁻¹ s⁻¹
B3: 9C8 humanized scFv (9C8 Hum scFv v3-1) (scFv)
scFv: DIQMTQSPSSVSASVGDRVTITCQASQSISNELSWYQQKPGKAPKLLIYRTSTLASGVPSRFSGSGSGTDFTLTISSLQPEDFATYYCQQGYNSNDVDNVFGGGTKVEIKGGGGSGGGGSGGGGSGGGGSEVQLVESGGGLVQPGGSLRLSCTVSGIDLSSYDMSWVRQAPGKGLEWVGYIYTDSSTYYANWAKGRFTISRDNSKNTLYLQMNSLRAEDTAVYYCARGSTDYAFDTRLDLWGQGTLVTVSSGPPPPPHHHHHH
notes: the sentence before it names 9C8 v3-1; purified by 6×His tag; also called 9C8 scFv v3-1; 9C8v3-1

- EC50: concentration necessary to inhibit bioactivity of 50 pg/ml of IL-6 [4]: 767 pg/mL
B4: 14B5 chimeric mAb (antibody, V domains shown)
VH: QSVEESGGRLVTPGTPLTLTCAVSGFSLSDYTMIWVRQAPGEGLEWIGIISSSGNTYYATWVKGRFTISKTSTTVDLKMISPTTEDTATYFCARGSGAYISDYFNVWGPGTLVTVSS
VL: FELTQTPSSVEAAVEGTVTIKCQASQSIDSWLSWYQQKPGQPPKLLIYAASKLATGVPSRFSGSGSGTQFTLTIGDLECADAATYYCQSYYDVNAGYGFGGGTEVVVVR

- EC50, inhibition of IL-6 induced B9 cell proliferation [5]: 510 pg/mL
B5: 8C8 rabbit scFv (scFv, V domains shown)
VH: QSVEESGGRLVAPGGSLTLTCKASGFSLSSSGVSWVRQAPGKGLEWIGYVSIADTISYANWAKGRFTISKTSSTTVDLEMTSLTTEDTATYFCVRGFITYSGVLWGPGTLVTVSS
VL: QVLTQTPASVSAAVGGTVTISCQSSQNVYSNAFLSWYQQKPGQPPKLLIYKASKLASGVPSRFSGSGSGTQFTLTISGVQCDDAATYYCAGEYEGGIGTFGGGTEVVVVR

- EC50, neutralization of IL-6, first batch [5]: 1670 pg/mL
- EC50, neutralization of IL-6, second batch [5]: 1690 pg/mL
- EC50, neutralization of IL-23, first batch [4]: 4.96 ng/mL
- EC50, neutralization of IL-23, second batch [4]: 3.25 ng/mL
B6: 13A8n-PEG20-31A12c bispecific (bispecific antibody)
scFv 1: DIQLTQSPSFLSASVGDRVTITCQASQSISNELSWYQQKPGKAPKLLIYRASTLTSGVPSRFSGSGSGTEFTLTISSLQPEDFATYYCQQGYNSNDVDNVFGGGTKVEIKGGGGSGGGGSGGGGSGGGGSEVQLVESGGGLVQPGGSLRLSCTVSGIDLSSYDLSWVRQAPGKGLEWVGYIYTDSSTWYANWAKGRFTISRDNSKNTLYLQLNSLRAEDTAVYYCARGSTDYAFDTRLDLWGQGTLVTVSS
scFv 2: DIQLTQSPSFLSASVGDRVTITCQASEDIESYLAWYQQKPGKAPKLLIYSASTLTSGVPSRFSGSGSGTEFTLTISSLQPEDFATYYCLGADDTTTVFGGGTKVEIKGGGGSGGGGSGGGGSGGGGSEVQLVESGGGLVQPGGSLRLSCTASGFSLSSYWLTWVRQAPGKGLEWVGTIATSSTYYASWAKGRFTISRDNSKNTLYLQLNSLRAEDTAVYYCARGLTTDYDLDLWGQGTLVTVSS
modifications: C-terminal azidohomoalanine (Aha) joined through a linear 20 kDa PEG to the Aha of the other scFv; N-terminal azidohomoalanine (Aha) joined through a linear 20 kDa PEG to the Aha of the other scFv

- EC50, B9 cell line bioassay [5]: 246 pg/mL
- EC50, mouse splenocyte assay [4]: 234 pg/mL
B7: 13A8c-PEG-22H8c bispecific (bispecific antibody)
scFv 1: DIQLTQSPSFLSASVGDRVTITCQASQSISNELSWYQQKPGKAPKLLIYRASTLTSGVPSRFSGSGSGTEFTLTISSLQPEDFATYYCQQGYNSNDVDNVFGGGTKVEIKGGGGSGGGGSGGGGSGGGGSEVQLVESGGGLVQPGGSLRLSCTVSGIDLSSYDLSWVRQAPGKGLEWVGYIYTDSSTWYANWAKGRFTISRDNSKNTLYLQLNSLRAEDTAVYYCARGSTDYAFDTRLDLWGQGTLVTVSS
scFv 2: DIQLTQSPSFLSASVGDRVTITCQSSQTVYKNNLLSWYQQKPGKAPKLLIYLASTLASGVPSRFSGSGSGTEFTLTISSLQPEDFATYYCLGGYDDDADTAFGGGTKVEIKGGGGSGGGGSGGGGSGGGGSEVQLVESGGGLVQPGGSLRLSCTVSGFSLSTYTLNWVRQAPGKGLEWVGAISYDGGTAYANWAKGRFTISRDNSKNTLYLQLNSLRAEDTAVYYCARGFYVYAYIGDAFDPWGQGTLVTVSS
modifications: C-terminal azidohomoalanine (Aha) joined through a 20 kDa PEG to the Aha of the other scFv

- EC50, B9 cell line bioassay [5]: 138 pg/mL
- EC50, mouse splenocyte assay [4]: 2700 pg/mL
B8: 13A8c-40KPEG-31A12c bispecific (bispecific antibody)
scFv 1: DIQLTQSPSFLSASVGDRVTITCQASQSISNELSWYQQKPGKAPKLLIYRASTLTSGVPSRFSGSGSGTEFTLTISSLQPEDFATYYCQQGYNSNDVDNVFGGGTKVEIKGGGGSGGGGSGGGGSGGGGSEVQLVESGGGLVQPGGSLRLSCTVSGIDLSSYDLSWVRQAPGKGLEWVGYIYTDSSTWYANWAKGRFTISRDNSKNTLYLQLNSLRAEDTAVYYCARGSTDYAFDTRLDLWGQGTLVTVSS
scFv 2: DIQLTQSPSFLSASVGDRVTITCQASEDIESYLAWYQQKPGKAPKLLIYSASTLTSGVPSRFSGSGSGTEFTLTISSLQPEDFATYYCLGADDTTTVFGGGTKVEIKGGGGSGGGGSGGGGSGGGGSEVQLVESGGGLVQPGGSLRLSCTASGFSLSSYWLTWVRQAPGKGLEWVGTIATSSTYYASWAKGRFTISRDNSKNTLYLQLNSLRAEDTAVYYCARGLTTDYDLDLWGQGTLVTVSS
modifications: C-terminal azidohomoalanine (Aha) joined through a linear 40 kDa PEG to the Aha of the other scFv

- EC50, B9 cell line bioassay [5]: 933 pg/mL
- EC50, mouse splenocyte assay [4]: 5660 pg/mL
B9: 13A8n-PEG-45G5c bispecific (bispecific antibody)
scFv 1: DIQLTQSPSFLSASVGDRVTITCQASQSISNELSWYQQKPGKAPKLLIYRASTLTSGVPSRFSGSGSGTEFTLTISSLQPEDFATYYCQQGYNSNDVDNVFGGGTKVEIKGGGGSGGGGSGGGGSGGGGSEVQLVESGGGLVQPGGSLRLSCTVSGIDLSSYDLSWVRQAPGKGLEWVGYIYTDSSTWYANWAKGRFTISRDNSKNTLYLQLNSLRAEDTAVYYCARGSTDYAFDTRLDLWGQGTLVTVSS
scFv 2: MADIQLTQSPSFLSASVGDRVTITCQSSQSIYNNNLLSWYQQKPGKAPKLLIYFASTLASGVPSRFSGSGSGTEFTLTISSLQPEDFATYYCLGGYDDDADTAFGGGTKVEIKGGGGSGGGGSGGGGSGGGGSEVQLVESGGGLVQPGGSLRLSCTVSGFSLSVYAINWVRQAPGKGLEWVGIINDVDDTAYSAWAKGRFTISRDNSKNTLYLQLNSLRAEDTAVYYCARGYLSYAYAGDAFDPWGQGTLVTVSSGM
modifications: C-terminal azidohomoalanine (Aha) joined through a 20 kDa PEG to the Aha of the other scFv; N-terminal azidohomoalanine (Aha) joined through a 20 kDa PEG to the Aha of the other scFv

- Kd [6]: 0.062 nM
- koff [6]: 8.99e-05 s⁻¹
- kon [6]: 1.46e+06 M⁻¹ s⁻¹
B10: 28D2 N-Aha (scFv)
scFv: MEDIQLTQSPSFLSASVGDRVTITCQASEDLFSSLAWYQQKPGKAPKLLIYSASTLASGVPSRFSGSGSGTDFTLTISSLQPEDFATYYCLGLYYYLTPDPIYGFGGGTKVEIKGGGGSGGGGSGGGGSGGGGSEVQLVESGGGLVQPGGSLRLSCTVSGLSLSKNAIAWVRQAPGKGLEWVGIIYAGGATTYASWAKGRFTISRDNSKNTLYLQLNSLRAEDTAVYYCAREYAGDSYYTGYTQLDLWGQGTLVTVSSGPPPPPHHHHHH
modifications: azidohomoalanine (Aha) in place of the single Met, at the N terminus
notes: also called E. coli 28D2 scFv with Aha at the N term

- Kd [6]: 0.053 nM
- koff [6]: 6.88e-05 s⁻¹
- kon [6]: 1.3e+06 M⁻¹ s⁻¹
B11: 28D2-L Aha (scFv)
scFv: MADIQLTQSPSFLSASVGDRVTITCQASEDLFSSLAWYQQKPGKAPKLLIYSASTLASGVPSRFSGSGSGTDFTLTISSLQPEDFATYYCLGLYYYLTPDPIYGFGGGTKVEIKGGGGSGMGGSGGGGSGGGGSEVQLVESGGGLVQPGGSLRLSCTVSGLSLSKNAIAWVRQAPGKGLEWVGIIYAGGATTYASWAKGRFTISRDNSKNTLYLQLNSLRAEDTAVYYCAREYAGDSYYTGYTQLDLWGQGTLVTVSSGPPPPPHHHHHH
modifications: azidohomoalanine (Aha) in place of a single Met in the Gly/Ser linker between VL and VH
notes: also called E. coli 28D2 scFv with Aha in the Gly/Ser linker

From patent US20160194391A1 (AstraZeneca / MedImmune, published 2016)
